Values quoted from earlier work in PMC3409362.
Read-outs that look alike come from different tables or passages of the source.

How the values were obtained:
[1] = molecular target: F-actin (Oryctolagus cuniculus) (UniProt P68135)
[2] = molecular target: F-actin (Oryctolagus cuniculus) (UniProt P68135); remark: listed apart in the source

Row | Substance | Kd [1] [nM] | Kd [2] [nM]
1 | V-ATPase B1 subunit (from UniProt P15313) | 150 | 
2 | V-ATPase B2 subunit (from UniProt P21281) |  | 150
